The RNAGym collection of RNA variant scans (doi:10.1073/pnas.2313332121)

B1: TPR t1 (parent)
chain: GACCAAUCUGCCCUCAGAGCUCGAGAACAUCUUCGGAUGCAGAGGAGGCAGGCUUCGGUGGCGCGAUAGCGCCAACGUCCUCAACCUCCAAUGCAUCCCACCACAUGAUGAUGCCUGAAGAGCCUUGGUUUUUUG

Variants of: B1
Experiment: polymerase ribozyme fitness, log enrichment relative to wild type (log ratio); higher = more active; in vitro selection for triplet polymerase activity
Method in brief: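 Each subunit of a heterodimeric triplet polymerase ribozyme was represented by a PCR-built, transcribed mutant library that underwent triplicate single-round in vitro selection with frozen incubation at −7 °C. Extended constructs were recovered by gel excision, streptavidin-bead capture and RT-PCR, and Illumina sequencing of input and output libraries kept genotypes with ≥10 input reads and ≥1 read per output. Fitness is the logarithm of genotype enrichment relative to wild-type enrichment, from inverse-variance-weighted replicate averages, with a logarithm base of 2.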

In order of falling “polymerase ribozyme fitness (log ratio)” value:
1. GACCAAUCUGCCCUCAGAGCUCGAGAACAUCUUCGGAUGCAGAGGAGGCAGGCUUGGGUGGCGCGAUAGCGCCAACGGCCUCAACCUCCAAUGCAUCCCACCACAUGAUGAUGCCUGAAGCGCCUUGGUUUUUUG  1.64
2. GACCAAUCUGCCCUCAGAGCUCGAGAACAUCUUCGGAUGCAGAGGAGGCAGGCUUUGGUGGCGCGAUAGCGCCCUCGUCCUCAACCUCCAAUGCAUCCCACCACAUGAUGAUGCCUGAAGAGCUUUGGUUUUUUG  0.971
3. GACCAAUCUGCCCUCAGAGCUCGAGAACAUCUUCGGAUGCAGAGGAGGCAGGCUUGGGUGGCACGAUAGCGCCAACUUCCUCAACCUCCAAUGCAUCCCACCACAUGAUGAUGCCUGAACAGCCUUGGUUUUUUG  0.612
4. GACCAAUCUGCCCUCAGAGCUCGAGAACAUCUUCGGAUGCAGAGGAGGCAGGCUUGGGUGACGCGAUAGCGCCAACGGCCUCAACCUUCAAUGCAUCCCACCACAUGAUGAAGCCUGAAGAGCCUUGGUUUUUUG  -0.105
5. GACCAAUCUGCCCUCAGAGCUCGAGAACAUCUUCGGAUGCAGAGGAGGCAGGCUUGGGUGGCGCGAUAUCGCCAACGUCCUCAACCUCCAAUGCAUCCCUCCACAUGAUGAUGCCUGAAGAGCCUUGGUCUUUUG  -0.344
6. GACCAAUCUGCCCUCAGAGCUCGAGAACAUCUUCGGAUGCAGAGGAGGCAGGCUUGGGUGGCGCGAUAGCGCCAACGUCCUCAACCUCCAAUGCAUCCCACCACAUGAUGAUGCCUGAAGAGCCUUGGUUUUUUC  -0.404
7. GACCAAUCUGCCCUCAGAGCUCGAGAACAUCUUCGGAUGCAGAGGAGGCAGGCUUGGGUGGCGCGAUAGCGCCAACCUCCUCAACCUCCAAUGCAUCCCACCACAUGAUGAUGCCUGAAGAGCCUUCGGUUUUUG  -0.438
8. GACCAAUCUGCCCUCAGAGCUCGAGAACAUCUUCGGAUGCAGAGGAGGCAGGCUUGGGUGGCGCGAUAGCGCCAACGUCCUCAACCUCCAAUGCAUCCCACCACAUGAUGAUACCUGAAGAGCCUUGGUUUUUUG  -1.08
9. GACCAAUCUGCCCUCAGAGCUCGAGAACAUCUUCGGAUGCAGAGGAGGCAGGCUUGGGUGGCGCGAUAGCGCCAACGUCCUCAACCUCCAAUGCAUCCCACCACAUGAUUGUGCCUGAAGAGCCUUGGUUUUUUG  -2.16
10. GACCAAUCUGCCCUCAGAGCUCGAGAACAUCUUCGGAUGCAGAGGAGGCAGGCUUGGGUGUCGCGAUAGCGCCAACGUCCUCAACCUCCAAUGCAUCCCACCACAUGAUGAUGCCUGAAGAGCCUUGGUUUUUUG  -2.32
11. GACCAAUCUGCCCUCAGAGCUCGAGAACAUCUUCGGAUGCAGAGGAGGCAGGCUUGGGUGGCGCGAUAGCGCCAACGUCCUCAACCUCCAAUGCAUCCCACCACAUGAUGAUCCCUGAAGAGCCUUGGUUUUGUG  -2.55
12. GACCAAUCUGCCCUCAGAGCUCGAGAACAUCUUCGGAUGCAGAGGAGGCAGGCUUUGGUGGCGCGAUAGCGCCGACGUCCUCAACCUCCAAUGCAUCCCACCACAUGAUAAAGCCUGAAGAGCCUUGGUUUUUUG  -2.67
13. GACCAAUCUGCCCUCAGAGCUCGAGAACAUCUUCGGAUGCAGAGGAGGCAGGCUUGGGUGGCCCGAUAGCGCCAACGUCCUCAACCUCCAAUGCAUCCCACCACAUGAUGAUGCCUGAAGAGCCUUGGUUUUUUG  -2.95
14. GACCAAUCUGCCCUCAGAGCUCGAGAACAUCUUCGGAUGCAGAGGAGGCAGGCUUGGGUGGCGCGAUAGCGCCAACGACCACAACCUCCAAUGCAUCCCACCACAUGAUGAUCCCUGAAGAGCCUUGGUUUUUUG  -3.06
15. GACCAAUCUGCCCUCAGAGCUCGAGAACAUCUUCGGAUGCAGAGGAGGCAGGCUUGGGUGUCGCGAUAGCGCUAACGUCCUCAACCUCCAAUGCAUCCCACCACAUGAUGAUGCCUGAAGAGCCUUGGUUUUUUG  -3.17
16. GACCAAUCUGCCCUCAGAGCUCGAGAACAUCUUCGGAUGCAGAGGAGGCAGGCUUGGGUGGCGCGAUAGCGCCAACGACCUCAACCUCCAAUGCAUCCCACCACAUGAUGAUGCCGGAAGAGCCUUGGUUUUUUG  -3.2
17. GACCAAUCUGCCCUCAGAGCUCGAGAACAUCUUCGGAUGCAGAGGAGGCAGGCUUGGGUGGCGCGAUAGCGCCAACGUCCUCAACCUCCAAUUCAUCCCACCACAUGAUGAUGCCUGAAGAGCCUUGGUUUUUUU  -3.52
18. GACCAAUCUGCCCUCAGAGCUCGAGAACAUCUUCGGAUGCAGAGGAGGCAGGCUUGGGUGGCGCGAUAGCGCCAACGUCCUCAACCUCCAAUGCAUCCCACCACAUGAUCAUGCCUGAAGAGCCUUGGUUUUUUG  -3.6
19. GACCAAUCUGCCCUCAGAGCUCGAGAACAUCUUCGGAUGCAGAGGAGGCAGGCUUGGGUGGCGCGAUAGCACCAACGUCCUAAACCUCCAAUGCAUCCCACCACAUGAUGAUGCAUGAAGAGCCUUGGUUUUUUG  -3.76
20. GACCAAUCUGCCCUCAGAGCUCGAGAACAUCUUCGGAUGCAGAGGAGGCAGGCUUGGGUGGCGCGAUAGCUCCAACGUCCUCAACCUCCAAUGCAUCCCACCACAUGAUGAUGCCUGAAAAGCCUUAGUUUUUUG  -4.03
21. GACCAAUCUGCCCUCAGAGCUCGAGAACAUCUUCGGAUGCAGAGGAGGCAGGCUUUGGUGGCGCGAUUGUGCCAACGUCCUCAACCUCCAACGCAUCCCACCAUAUGAUGAUGCCUGAAGAGCUUUGGUUUUUUG  -7.15
